The record followed here is the Immune Epitope Database (IEDB).

One experiment deals with HLA-A*23:01. The experiment is described as follows: IEDB peptide-MHC binding, purified MHC/competitive/radioactivity; filed as Kd, often an IC50 or EC50 that approximates it; ≥ and ≤ were set here for values at or beyond the usual limits of such assays.
In a further experiment the target is HLA-A*24:02. Described as above.
Experiment [1] addresses HLA-A*02:01. The experiment is described as follows: IEDB peptide-MHC binding, purified MHC/competitive/fluorescence; ≥ and ≤ were set here for values at or beyond the usual limits of such assays.
In a further experiment the target is HLA-A*02:03. The experiment is described as follows: IEDB peptide-MHC binding, purified MHC/competitive/radioactivity; filed as Kd, often an IC50 or EC50 that approximates it; ≥ and ≤ were set here for values at or beyond the usual limits of such assays.
The next experiment has as its target HLA-B*08:01. The description is as above.
Another experiment addresses HLA-A*30:01. Described as above.
The target in a further experiment is HLA-A*26:01. Described as above.
The target in a further experiment is HLA-A*30:02. The description is as above.
For experiment [2], the target named is HLA-A*02:01. Nature of the experiment: IEDB peptide-MHC binding, purified MHC/direct/fluorescence; filed as Kd, often an IC50 or EC50 that approximates it; ≥ and ≤ were set here for values at or beyond the usual limits of such assays.
The next experiment concerns the target HLA-A*69:01. The description is as above.
Experiment [3] addresses HLA-A*01:01. The experiment is described as follows: IEDB peptide-MHC binding, purified MHC/competitive/radioactivity; filed as Kd, often an IC50 or EC50 that approximates it; ≥ and ≤ were set here for values at or beyond the usual limits of such assays.
Experiment [4] concerns the target HLA-A*01:01. The experiment is described as follows: IEDB peptide-MHC binding, purified MHC/direct/fluorescence; filed as Kd, often an IC50 or EC50 that approximates it; ≥ and ≤ were set here for values at or beyond the usual limits of such assays. The settings on record: source organism: Human immunodeficiency virus 1.
A further experiment has as its target HLA-A*02:02. Nature of the experiment: IEDB peptide-MHC binding, purified MHC/competitive/radioactivity; filed as Kd, often an IC50 or EC50 that approximates it; ≥ and ≤ were set here for values at or beyond the usual limits of such assays.
Another experiment has as its target HLA-A*02:06. Described as above.
[5] abbreviates: source organism: Dengue virus 1 Brazil/97-11/1997.
Setting [6] is: source organism: Zaire ebolavirus.
[7] abbreviates: source organism: Vaccinia virus WR.
Setting [8] is: source organism: Sudan ebolavirus.
Setting [9] is: source organism: Dengue virus 2 Jamaica/1409/1983.
[10] abbreviates: source organism: Dengue virus 3 Martinique/1243/1999.
The mark [11] stands for this setting: source organism: Dengue virus 4 Philippines/H241/1956.
Setting [12] is: source organism: Francisella tularensis subsp. tularensis FSC198.
Setting [13] is: source organism: Escherichia coli.
The mark [14] stands for this setting: source organism: Brucella melitensis.
Where [15] appears, read: source organism: SARS coronavirus Tor2.

In the case of GWNDWQQVPF, the values for the Kd in the experiment with HLA-A*23:01 (setting [5]) and in the experiment with HLA-A*24:02 (setting [5]) were 1400 nM and 1740 nM, respectively. On to FGTNETEYL, for which the half-maximal inhibitory concentration (IC50) with HLA-A*02:01 [1] (setting [6]) came out at 27400 nM. On to LLKATLLAV, for which the equilibrium dissociation constant (Kd) is 0.03 nM with HLA-A*02:03 (setting [5]) and 12.7 nM with HLA-B*08:01 (setting [5]). With HLKNSAENK, the Kd with HLA-A*30:01 (setting [7]) amounted to 861 nM.

GVSTDIPSA showed an IC50 with HLA-A*02:01 [1] (setting [8]) of 2080 nM.

Consider WTMKIGIGIL, for which the Kd with HLA-B*08:01 (setting [5]) was determined as 342 nM. As to KVRSNAALG, in the experiment with HLA-A*30:01 (setting [9]), the dissociation constant Kd was determined as 2.44 nM.

QVSDVDKLV gave a half-maximal inhibitory concentration (IC50) in the experiment with HLA-A*02:01 [1] (setting [6]) of no less than 70700 nM. Regarding VWEVEDYGF, in the experiment with HLA-A*23:01 (setting [10]), the Kd turned out to be 296 nM. With ALKRRLRTL, the Kd with HLA-B*08:01 (setting [11]) amounted to 1.89 nM.

For RYRSGFWII, the Kd in the experiment with HLA-A*30:01 (setting [7]) was found to be 8.74 nM. For GLLKKFEFL, the Kd in the experiment with HLA-B*08:01 (setting [7]) was found to be 46.8 nM.

Regarding EKVDAIDGEY, the dissociation constant (Kd) in the experiment with HLA-A*26:01 (setting [9]) was 9410 nM; in the experiment with HLA-A*30:02 (setting [9]) it was 25.9 nM. For the sequence KLRPRWLDA, in the experiment with HLA-A*30:01 (setting [5]), the Kd is 22.5 nM. For AIKRRLRTL, the dissociation constant (Kd) with HLA-B*08:01 (setting [10]) is 9.67 nM. On to SVYIRPTSL, for which the Kd with HLA-B*08:01 (setting [7]) amounted to 10.7 nM.

As for RRFRRPMSL, the dissociation constant Kd in the experiment with HLA-B*08:01 (setting [7]) worked out at 111 nM. As to TLGRNKRPRL, in the experiment with HLA-B*08:01 (source organism: Dengue virus 3 Sri Lanka/1266/2000), the dissociation constant Kd came out at 395 nM. Consider HFQRALIFIL, for which the Kd in the experiment with HLA-B*08:01 (setting [9]) worked out at 1730 nM. With LLMLCLHHA, the IC50 in the experiment with HLA-A*02:01 [1] (setting [6]) turned out to be 404 nM. As to SILEYAKSI, the Kd stood at 102 nM in the experiment with HLA-A*02:01 [2] (setting [12]) and 107 nM with HLA-A*69:01 (setting [12]). Regarding RGDLPVWLSY, the dissociation constant Kd with HLA-A*30:02 (setting [5]) turned out to be 4100 nM.

Consider YSHGDIKAS, for which, in the experiment with HLA-A*02:01 [1] (setting [7]), the concentration for half-maximal inhibition (IC50) is no less than 72000 nM. On to MRKTDWLPM, for which, in the experiment with HLA-B*08:01 (setting [10]), the Kd was found to be 35 nM. On the same count and under the same terms, the figure for SLLRNDVPM is 47.5 nM. For SALYSYASA, in the experiment with HLA-A*30:01 (setting [7]), the Kd was 36.7 nM. Consider RTPQDNQLTY, for which, in the experiment with HLA-A*30:02 (setting [9]), the dissociation constant Kd came out at 1.02 nM. For QIDNFSLGV, the equilibrium dissociation constant (Kd) with HLA-A*01:01 [3] (setting [9]) came out at 661 nM. Regarding TFKNAHAKK, the dissociation constant (Kd) in the experiment with HLA-A*30:01 (setting [10]) came out at 111 nM. KNISGQSPA came in with an IC50 with HLA-A*02:01 [1] (setting [6]) of no less than 228000 nM.

With GKLGLITNT, the half-maximal inhibitory concentration (IC50) in the experiment with HLA-A*02:01 [1] (setting [6]) is no less than 231000 nM. Consider ENPYKTWAY, for which the Kd in the experiment with HLA-A*26:01 (setting [10]) amounted to 2950 nM.

For LTEIASLPT, the Kd with HLA-A*01:01 [3] (setting [11]) was found to be 1470 nM. For GLLASAPGI, the Kd is 6.3 nM with HLA-A*02:01 [2] (setting [13]) and 974 nM with HLA-A*69:01 (setting [13]).

Consider WFVERNMVI, for which the Kd with HLA-A*23:01 (setting [10]) worked out at 340 nM.

As to RFANALLAL, the Kd in the experiment with HLA-A*23:01 (setting [10]) worked out at 142 nM; with HLA-A*24:02 (setting [10]) it was 689 nM.

As for IIGTNGNHM, the 50% inhibitory concentration (IC50) with HLA-A*02:01 [1] (setting [8]) is no less than 144000 nM. In the case of TVRDGQLEV, the Kd with HLA-A*30:01 (setting [7]) worked out at 12.8 nM.

As for VMKRYSAPFE, the Kd in the experiment with HLA-A*30:01 (setting [11]) was 5920 nM.

With LAIPPTAGIL, in the experiment with HLA-B*08:01 (setting [5]), the Kd came to 4250 nM.

For NPGARNARL, the dissociation constant Kd in the experiment with HLA-B*08:01 (setting [7]) was determined as 6.19 nM.

VLLNAPSEA had a 50% inhibitory concentration (IC50) in the experiment with HLA-A*02:01 [1] (source organism: Human alphaherpesvirus 1 strain 17) of 19 nM. As for NPDIVIYQY, in the experiment with HLA-A*01:01 [4], the Kd is no less than 21000 nM. Regarding VTEKDSPVNI, the Kd with HLA-A*01:01 [3] (setting [9]) is no less than 40900 nM. Regarding IKRKLRTLIL, the equilibrium dissociation constant (Kd) in the experiment with HLA-B*08:01 (setting [5]) was 5800 nM. As to MLKRVRNRV, the equilibrium dissociation constant (Kd) amounted to 14.5 nM with HLA-A*02:03 (setting [10]) and 18.5 nM with HLA-B*08:01 (setting [10]).

Regarding ETDLNQWMV, the Kd in the experiment with HLA-A*02:01 [2] (setting [14]) stood at 163 nM; with HLA-A*69:01 (setting [14]), 0.8 nM. On to NLTSTWVTY, for which the Kd in the experiment with HLA-A*01:01 [3] (setting [10]) was 1710 nM.

For SYKVASAGI, the Kd with HLA-A*24:02 (setting [11]) turned out to be 105 nM. Sequence SSAMVQVHS yielded an IC50 in the experiment with HLA-A*02:01 [1] (setting [6]) of no less than 595000 nM. As for AVSVYGAIT, the Kd in the experiment with HLA-A*02:02 (setting [7]) was determined as 11400 nM; with HLA-A*02:03 (setting [7]), 9610 nM; with HLA-A*02:06 (setting [7]) it was 14300 nM.

As for VMKIGIGVLL, the Kd with HLA-B*08:01 (setting [10]) turned out to be 516 nM.

Take SLPSYAAYA: the Kd with HLA-A*02:02 (setting [15]) worked out at 6.68 nM; in the experiment with HLA-A*02:03 (setting [15]), 2.56 nM; with HLA-A*02:06 (setting [15]) it was 8.72 nM. Turning to CIKSHSVSL, the Kd with HLA-B*08:01 (setting [7]) turned out to be 2.3 nM.

TMGVLCLAIL: the dissociation constant (Kd) with HLA-B*08:01 (setting [10]) is 6430 nM. For the sequence KALSKLISK, in the experiment with HLA-A*30:01 (setting [7]), the equilibrium dissociation constant (Kd) amounted to 70 nM.

A word on the Kd: it is the constant that tells how readily two partners part at equilibrium. Broadly, the IC50 is the concentration needed to halve the response being measured. Higher therefore signals weaker potency in that assay.
